In patent US7387779B2, “Anti-angiogenic proteins and fragments and methods of use thereof” (Beth Israel Deaconess Medical Center, priority 1998, dated 2008):

Legend:
[1] = system: WM-164 cells; test: Melanoma cell proliferation, methylene blue staining; assay type: cell-based, human; conditions: for Relative Cell No. (%) WM-164: 3% FCS, 50 μg/ml recombinant protein
Method: In the methylene-blue staining method, 7000 cells were plated into each well of a 96-well plate, and treated as described above. Cells were then counted using the method of Oliver et al. (1989, J. Cell. Sci. 92:513-8). After 48 hours of treatment, all wells were washed with 100 μl of PBS, and the cells fixed with 10% formalin in neutral-buffered saline (Sigma Chemical Co., St. Louis, Mo., USA). The cells were then stained with 1% methylene blue (Sigma) in 0.01M borate buffer, pH 8.5. Wells were washed with 0.01M borate buffer, and the methylene blue extracted from the cells with 0.1N HCl/ethanol, and the absorbance measured in a microplate reader (Bio-Rad, Hercules, Calif., USA) at 655 nm. Polymyxin B (Sigma) at a final concentration of 5 μg/ml was used to inactivate endotoxin (Liu, S. et al., 1997, Clin. Biochem. 30:455-63).
Endothelial cell proliferation was performed by ^3H-thymidine incorporation or methylene blue staining as described above in Example 25. C-PAE cells (passages 2-4) were grown to confluence and kept contact inhibited for 48 hours. 786-O, PC-3 and WM-164 cells were used as non-endothelial controls, and were cultured as described in Example 25, above. HPE (human primary prostate epithelial cells) were cultured in keratinocyte-SFM supplemented with bovine pituitary and recombinant human EGF (Life Technologies/Gibco BRL, Gaithersburg, Md., USA). The melanoma cell line WM-164 was obtained from Dr. Meenhard Herlyn at the Wistar Institute (Philadelphia, Pa., USA), and was cultivated in 78% MCDB-153 medium, 10% L-15 medium, 10% tryptose phosphate broth, 2% FBS, and 50 units/ml insulin, as described by Herlyn et al. (1990, Adv. Cancer Res. 54:213-34).
Proliferation of endothelial cells (C-PAE cells) and WM-164 melanoma cells was assayed by methylene blue staining, as described above in Examples 25 and 34. The results are shown in FIGS. 33A and 33B, which are a pair of graphs showing the effect of increasing concentration (x-axis) of Tumstatin, Tum-1, Tum-2, Tum-3 and Tum-4 on the relative number (y-axis) of C-PAE cells (FIG. 33A) and WM-164 cells (FIG. 33B). […] Tum-4, however, did have anti-proliferative activity in this cell line. […] Only Tum-4 inhibited WM-164 melanoma cells.

[2] = system: C-PAE; test: Endothelial tube formation assay (Table 4); assay type: cell-based, bovine
Method: Deletion fragments of tumstatin were cloned into bacterial expression vectors, expressed, purified using nickel chromoatography, and then analyzed for in vitro anti-angiogenic, and associated, activity. Special efforts were made to ensure the removal of contaminating endotoxins from the protein preparations. Full-length Tumstatin, Tumstatin-N53 and two additional deletion mutants (Tum-2C and Tum-KE) were made and tested. The deletion mutants were tested for endothelial cell proliferation, cell cycle progression, apoptosis, and endothelial tube formation.

[3] = system: HUVEC cells; test: Cell adhesion assay with integrin blocking antibodies; assay type: cell-based, human; conditions: label = plate coating
Method: The attachment of HUVECs to Tumstatin-coated plates in the presence of integrin subunits α1 through α6, β1, and αvβ3 integrin blocking antibody was examined. This assay was performed according to the method of Senger et al. (Senger, D. R. et al, 1997, Proc. Natl. Acad. Sci. USA 94:13612-7), with minor modification. 96-well plates were coated with either human Tumstatin, mouse laminin-1, or human Type IV collagen (Collaborative Biomedical Prods., Bedford, Mass., USA) at a concentration of 10 μg/ml overnight at 37° C. Vitronectin (Collaborative Biomed. Prods.) at a concentration of 0.5 μg/ml was then used to coat the plates. The remaining protein binding sites were blocked with 100 mg/ml of BSA (Sigma Chemical Co., St. Louis, Mo., USA) in PBS for 2 hours. HUVEC cells were grown to subconfluence (70-80%) in EGM-2 medium, gently trypsinized and resuspended in serum-free medium (1.5×10^5 cells/ml). The cells were mixed with 10 μg/ml of either mouse IgG, (control) (Life Technologies/Gibco BRL, Gaithersberg, Md., USA) or antibody (mouse monoclonal antibody to the human β1 integrin (clone P4C10) (Life Technologies/Gibco BRL); monoclonal antibody to human integrins α1 through α.6 (CHEMICON Int'l, Temecula, Calif., USA); αvβ3 integrin (clone LM609) (CHEMICON Int'l) and incubated for 15 minutes at room temperature, with gentle agitation. One hundred microliters of the cell suspension was then added to each well and incubated for 45 minutes at 37° C. Unattached cells were removed by washing, and the number of attached cells were counted after staining with methylene blue. C-PAE cells were used in separate experiments, following the above procedure.
Cell Attachment Activity: Cell attachment using endothelial cells was performed as described above. HUVEC or C-PAE cells were incubated with monoclonal anti-human integrin antibodies, control mouse IgG (10 μg/ml), or synthetic peptide, plated onto pre-coated 96-well plates, and the number of cells attaching to the plates was determined using measurement of methylene blue staining at OD655. […] CNGRC peptide was used as a control.
The cell attachment assay was performed as described above.

[4] = system: Goodpasture autoantibody; test: Reactivity with Goodpasture autoantibody (western blotting); assay type: binding, human
From the text: Goodpasture syndrome is an autoimmune disease characterized by pulmonary hemorrhage and/or rapidly progressing glomerulonephritis, which are caused by the disruption of glomerular and alveolar basement membranes through immune injury associated with autoantibody activity against α3(IV) NC1. Recently, the most probable disease-related pathogenic epitope was identified in the N-terminal portion (Kalluri, R. et al., 1996, J. Biol. Chem. 271:9062-8; Hellmark, T. et al., 1999, Kidney Int. 55:938-44), and was then further confined within the N-terminal 40 amino acids (Hellmark, T. et al., 1999, J. Biol. Chem. 274:25862-8; Netzer, K. O. et al., 1999, J. Biol. Chem. 274:11267-74). The N-terminal Tumstatin-44-131 consists of residues 44-131 of Tumstatin, which is outside of the Goodpasture autoepitope. To further confirm that Tumstatin-44-131 would not be detected by Goodpasture autoantibody, antisera from patients with Goodpasture was used for western blotting.

B1: Tum-4: residues 181 to 244 of Tumstatin (SEQ ID NO:25) (protein)
chain: EFRASPFLECHGRGTCNYYSNSYSFWLASLNPERMFRKPIPSTVKAGELEKIISRCQVCMKKRH
modifications: Tum-4 (amino acids 181-244 of SEQ ID NO10)
[1]; 50 μg/ml
  inhibition of WM-164 melanoma cells: 46.1%
[1]
  Relative Cell No. (%) WM-164: 52.4 ± 3.4 %

B2: Tumstatin-44-131: residues 44 to 131 of full-length Tumstatin (SEQ ID NO:33) (protein)
chain: FSFLFVQGNQRAHGQDLGTLGSCLQRFTTMPFLFCNVNDVCNFASRNDYSYWLSTPALMPMNMAPITGRALEPYISRCTVCEGPAIAI
modifications: Tumstatin-45-132 (amino acids 45-132 of SEQ ID NO10)
[2]
  Tube (Endothelial tube formation assay): active
[3]; 10 μg/ml antibody
  inhibition of HUVEC attachment to coated plates by αvβ3 antibody: 47.1%
  inhibition of HUVEC attachment to coated plates by β1 antibody: 47.5%
[4]
  detection by antisera / autoantibodies from patients with Goodpasture syndrome: failed to detect
[1]
  effect on proliferation of WM-164 cells: not observed

B3: Tum-2: residues 1 to 132 of Tumstatin (SEQ ID NO:23) (protein)
chain: GLKGKRGDSGSPATWTTRGFVFTRHSQTTAIPSCPEGTVPLYSGFSFLFVQGNQRAHGQDLGTLGSCLQRFTTMPFLFCNVNDVCNFASRNDYSYWLSTPALMPMNMAPITGRALEPYISRCTVCEGPAIAI
modifications: Tum-2 (amino acids 1-132 of SEQ ID NO10)
[1]
  effect on proliferation of WM-164 cells: not affected
  Relative Cell No. (%) WM-164: 96.2 ± 3.7%

B4: Tumstatin: NC1 domain of the α3 chain of type IV collagen, residues 1-244 (SEQ ID NO:10) (protein, listed as Homo sapiens)
chain: GLKGKRGDSGSPATWTTRGFVFTRHSQTTAIPSCPEGTVPLYSGFSFLFVQGNQRAHGQDLGTLGSCLQRFTTMPFLFCNVNDVCNFASRNDYSYWLSTPALMPMNMAPITGRALEPYISRCTVCEGPAIAIAVHSQTTDIPPCPHGWISLWKGFSFIMFTSAGSEGTGQALASPGSCLEEFRASPFLECHGRGTCNYYSNSYSFWLASLNPERMFRKPIPSTVKAGELEKIISRCQVCMKKRH
[2]
  Tube (Endothelial tube formation assay): active
[3]
  inhibition of HUVEC attachment by antibody to subunits α1 through α4: did not block
  inhibition of HUVEC attachment by αvβ3 antibody and β1 antibody together: 91%
[3]; 10 μg/ml antibody
  inhibition of HUVEC attachment to coated plates by α5 antibody: 20%
  inhibition of HUVEC attachment to coated plates by α6 antibody: 54%
  inhibition of HUVEC attachment to coated plates by αvβ3 antibody: 80%
  inhibition of HUVEC attachment to coated plates by β1 antibody: 54%
[4]
  detection by antisera / autoantibodies from patients with Goodpasture syndrome: detected
[1]
  effect on proliferation of WM-164 cells: no inhibitory effects
  Relative Cell No. (%) WM-164: 100.0 ± 2.9%

B5: Tum-1: residues 54 to 244 of Tumstatin, lacking the N-terminal 53 amino acids (SEQ ID NO:22) (protein)
chain: QRAHGQDLGTLGSCLQRFTTMPFLFCNVNDVCNFASRNDYSYWLSTPALMPMNMAPITGRALEPYISRCTVCEGPAIAIAVHSQTTDIPPCPHGWISLWKGFSFIMFTSAGSEGTGQALASPGSCLEEFRASPFLECHGRGTCNYYSNSYSFWLASLNPERMFRKPIPSTVKAGELEKIISRCQVCMKKRH
modifications: Tum-1 (Tumstatin N-53) (amino acids 54-244 of SEQ ID NO10)
[2]
  Tube (Endothelial tube formation assay): active
[3]; 10 μg/ml antibody
  inhibition of HUVEC attachment to coated plates by α6 antibody: did not
  inhibition of HUVEC attachment to coated plates by αvβ3 antibody: inhibited this adhesion
  inhibition of HUVEC attachment to coated plates by β1 antibody: inhibited this adhesion
[4]
  detection by antisera / autoantibodies from patients with Goodpasture syndrome: did not bind autoantibodies
[1]
  effect on proliferation of WM-164 cells: not affected
  Relative Cell No. (%) WM-164: 100.7 ± 2.7%
